Literature values, collected in paper PMC5535146.
Read-outs that look alike come from different tables or passages of the source.

Assays:
calmodulin [1] = target: calmodulin (UniProt P0DP23)
calmodulin [2] = target: calmodulin (UniProt P0DP23); remark: listed apart in the source

Substance: CyaA adenylate cyclase AC (from UniProt P0DKX7)
- Kd (calmodulin [1]): 0.2 nM

Substance: edema factor (from UniProt P40136)
- Kd (calmodulin [2]): 20 nM
